Test results taken from US20030144495, “Drosophila recombination-associated protein and methods for use” (Albert Einstein College of Medicine of Yeshiva University, published 2003).

Biological target: RecA (Escherichia coli, UniProt P0A7G6 P0A7G6:2-353)
Assay: EMSA; gel shift in presence of ATP-gamma-S, 20 mM Tris pH 7.35, 10 mM MgCl2, 37 C
Details: tags: commercial, Promega/Pharmacia/USB; label: 5'-32P
Method: Any oligonucleotide may be used for this assay. For this experiment, an oligonucleotide (33-mer) derived from the central portion of the pUC19 poly linker 5′-[…]-3′ [SEQ ID NO: 20] was endlabeled at the 5′ end with ³²P-ATP using T4 polynucleotide kinase. The oligonucleotide was purified on Qiaquick columns using buffer PN (Qiagen) and the OD at 260 nm indicated a concentration of 5 ng/μl. Any oligonucleotide sequence may be used in this experiment. The SEQ ID NO: 16 oligonucleotide was incubated with 60 ng of DRAP or RecA in various buffers for 30 minutes at 37° C. A loading buffer was added and the material separated on a 6% 1×TAE, polyacrylamide minigel at 250 V for 14 minutes. The gel was dried and exposed to film with one intensifying screen for ˜16 hrs. at −80° C. No degradation of the oligonucleotide was observed. (FIG. 8.) Gel shifting with RecA in the presence of […] is consistent with the known properties of that protein.

Sequence of RecA (P0A7G6 2-353, one chain of several): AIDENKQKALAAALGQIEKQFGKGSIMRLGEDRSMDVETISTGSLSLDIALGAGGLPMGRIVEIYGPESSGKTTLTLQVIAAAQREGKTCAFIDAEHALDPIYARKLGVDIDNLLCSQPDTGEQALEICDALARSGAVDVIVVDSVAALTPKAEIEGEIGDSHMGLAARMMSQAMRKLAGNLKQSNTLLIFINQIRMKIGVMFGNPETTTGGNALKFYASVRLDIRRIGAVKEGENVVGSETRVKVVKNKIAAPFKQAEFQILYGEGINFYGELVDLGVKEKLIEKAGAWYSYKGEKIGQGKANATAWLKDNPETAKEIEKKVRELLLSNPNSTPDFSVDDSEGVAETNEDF

## GGTACCCGGGGATCCTCTAGAGTCGACCTGCAG (ssDNA) [pUC19 polylinker 33-mer]
  binding result: binds
